US20110318339A1 (FABRUS, published 2011)
Numbering of substitutions follows the chain as printed. Names may count otherwise.

B1: Fab VH5-51_IGHD5-18*01>3_IGHJ4*01 G100K/G104T G24T/S28R/G35V & V3-4_IGLJ1*01 (Fab, V domains shown)
VH: EVQLVQSGAEVKKPGESLKISCKTSGYRFTSYWIVWVRQMPGKGLEWMGIIYPGDSDTRYSPSFQGQVTISADKSISTAYLQWSSLKASDTAMYYCARRKYSYTYDYFDYWGQGTLVTVSS
VL: QTVVTQEPSFSVSPGGTVTLTCGLSSGSVSTSYYPSWYQQTPGQAPRTLIYSTNTRSSGVPDRFSGSILGNKAALTITGAQADDESDYYCVLYMGSGISYVFGTGTKVTVL
notes: Fab made in E. coli: VH on CH1 with His6 and Flag tags (Plasmid A), VL on lambda CL (Plasmid E); also called H: KT TRV & L: wt
B2: Fab VH5-51_IGHD5-18*01>3_IGHJ4*01 G100K/G104T G24T/S28R/G35V & V3-4_IGLJ1*01 V91L/S96P S52G (Fab, V domains shown)
VH: B1 VH
VL: B1 VL with S52G, V91L, S96P
notes: Fab made in E. coli: VH on CH1 with His6 and Flag tags (Plasmid A), VL on lambda CL (Plasmid E); also called H: KT TRV & L: LP S52G
B3: Fab VH5-51_IGHD5-18*01>3_IGHJ4*01 G100K/G104T G24T/S28R/G35V & V3-4_IGLJ1*01 V91L/S96P S52M (Fab, V domains shown)
VH: B1 VH
VL: B1 VL with S52M, V91L, S96P
notes: Fab made in E. coli: VH on CH1 with His6 and Flag tags (Plasmid A), VL on lambda CL (Plasmid E); also called H: KT TRV & L: LP S52M
B4: Fab VH5-51_IGHD5-18*01>3_IGHJ4*01 G100K/G104T G24T/S28R/G35V & V3-4_IGLJ1*01 V91L/S96P (Fab, V domains shown)
VH: B1 VH
VL: B1 VL with V91L, S96P
notes: Fab made in E. coli: VH on CH1 with His6 and Flag tags (Plasmid A), VL on lambda CL (Plasmid E); also called H: KT TRV & L: LP

Assays:
[1] = biological target: T1, recombinant human DLL4 (Cat# 1506-D4/CF, R&D Systems) (human, UniProt Q9NR61 27-529); test: ELISA, DLL4 coated, Fab 20 nM
T1 construct: Bought protein; also called hDLL4; rHuman DLL4
Outline: (§1)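 Binding of Fab to the coated plate is measured by absorbance at 450 nm. Triplicate serial dilutions incubate 1 h at room temperature after 1% BSA/TBST blocking, and HRP-labelled anti-human kappa or lambda antibody (1:1000, 30 min) with 2-min TMB development reports bound Fab.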

[2] = biological target: T1, recombinant human DLL4 (Cat# …); test: ELISA, DLL4 coated, Fab 2.22 nM
Protocol: (§2) The plate was blocked by adding 1% BSA in Tris-buffered Saline Tween (TBST) and incubating for 1 hour at room temperature followed by washing 2 times with 150 μl TBST. A Fab antibody was serially diluted in 1% BSA in PBS. A 50 μl aliquot of each serial dilution was added, in triplicate, to each well and the plate was incubated for 1 hour at room temperature followed by washing 2 times with TBST. 50 μl of either goat anti-human kappa HRP conjugated secondary antibody (Cat # A7164-1 mL, Sigma-Aldrich) or goat anti-human lambda HRP conjugated secondary antibody (Cat # L1645-1 ml, Sigma-Aldrich), diluted 1:1000 in 1% BSA in PBS, was added to each well and the plate was incubated for 30 minutes at room temperature followed by washing 3 times with 200 μl TBST. Finally, 50 μl TMB one-component reagent (Cat # TMBW-1000-01, BioFax) was added and allowed to develop for 2 minutes at room temperature. The reaction was immediately halted by the addition of 50 μl 0.5M H₂SO₄ and the absorbance at 450 nm was measured using an ELISA plate reader.

[3] = biological target: T1, recombinant human DLL4 (Cat# …); test: ELISA, DLL4 coated, Fab 1.23 nM
Protocol: as §2

[4] = biological target: T1, recombinant human DLL4 (Cat# …); test: ELISA, DLL4 coated, Fab 33.33 nM
Protocol: as §2

[5] = biological target: T1, recombinant human DLL4 (Cat# …); test: ELISA, DLL4 coated, Fab 0.74 nM
Protocol: as §2

[6] = biological target: T1, recombinant human DLL4 (Cat# …); test: ELISA, DLL4 coated, Fab 11.11 nM
[7] = biological target: T1, recombinant human DLL4 (Cat# …); test: ELISA, DLL4 coated, Fab 50 nM
Protocol: (§3) In this example, an ELISA binding assay was used to assess the dose-dependent binding of Fab antibodies to recombinant human DLL4 and recombinant mouse DLL4.
as §2

[8] = biological target: T1, recombinant human DLL4 (Cat# …); test: ELISA, DLL4 coated, Fab 12.5 nM
Protocol: as §3, §2

[9] = biological target: T1, recombinant human DLL4 (Cat# …); test: ELISA, DLL4 coated, Fab 6.67 nM
Protocol: as §2

[10] = biological target: T1, recombinant human DLL4 (Cat# …); test: ELISA, DLL4 coated, Fab 3.70 nM
Protocol: as §2

[11] = biological target: T1, recombinant human DLL4 (Cat# …); test: ELISA, DLL4 coated, Fab 100 nM
Protocol: as §3, §2

[12] = biological target: T1, recombinant human DLL4 (Cat# …); test: SPR (ProteOn), hDLL4 amine-coupled on chip
Outline: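 SPR on a ProteOn GLM chip, with DLL4 amine-coupled at three surface densities. Fab analytes were run as 3-fold serial dilutions from 1 μM in 10 mM HEPES pH 7.4, 150 mM NaCl, 0.01% Tween-20, 0.1 mg/ml BSA at 25° C. Responses from each surface were globally fit for binding constants.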

[13] = biological target: T1, recombinant human DLL4 (Cat# …); test: ELISA, DLL4 coated, Fab 25 nM
Outline: as §1

[14] = biological target: T1, recombinant human DLL4 (Cat# …); test: ELISA, DLL4 coated, Fab 0.41 nM
Protocol: as §2

[15] = biological target: T1, recombinant human DLL4 (Cat# …); test: ELISA, DLL4 coated, Fab 0.14 nM
Protocol: as §2

[16] = biological target: T1, recombinant human DLL4 (Cat# …); test: ELISA, DLL4 coated, Fab 100 nM; remark: listed apart in the source
Protocol: as §2

Row | Binder | ELISA absorbance at 450 nm [1] [A450] | ELISA absorbance at 450 nm [2] [A450] | ELISA absorbance at 450 nm [3] [A450] | ELISA absorbance at 450 nm [4] [A450] | ELISA absorbance at 450 nm [5] [A450] | ELISA absorbance at 450 nm [6] [A450] | ELISA absorbance at 450 nm [7] [A450] | ELISA absorbance at 450 nm [8] [A450] | ELISA absorbance at 450 nm [9] [A450] | ELISA absorbance at 450 nm [10] [A450] | ELISA absorbance at 450 nm [11] [A450] | Kd [12] [nM] | koff [12] [s⁻¹] | kon [12] [M⁻¹ s⁻¹] | ELISA absorbance at 450 nm [13] [A450] | ELISA absorbance at 450 nm [14] [A450] | ELISA absorbance at 450 nm [15] [A450] | ELISA absorbance at 450 nm [16] [A450]
1 | B1 | 0.054 | 0 | 0.01 | 0.08 | 0.002 | 0.04 | 0.32 | 0.23 | 0.023 | 0.03 | 0.45 | 36.2 | 0.0717 | 2.09e+06 | 0.26 | 0.01 | 0 | 0.16
2 | B2 | – | – | 0.03 | 0.35 | – | 0.17 | 1.02 | 0.63 | – | 0.06 | 1.14 | 5 | 0.0147 | 2.96e+06 | 0.9 | 0.01 | 0.02 | 0.69
3 | B3 | – | – | 0.03 | 0.12 | – | 0.06 | 0.8 | 0.41 | – | 0.03 | 1.01 | – | – | – | 0.59 | 0.03 | 0.02 | 0.24
4 | B4 | – | – | 0.03 | 0.19 | – | 0.07 | 0.81 | 0.45 | – | 0.03 | 1 | 3.3 | 0.036 | 1.1e+07 | 0.58 | 0.02 | 0.03 | 0.34
